Reference: patent US20030054360

Assays:
Assay in all cases: filter
Details in all cases: 5-BrdU replaces T, apparent photocrosslink KD
[1] = target: Angiogenin (UniProt P03950)
[2] = target: beta-Nerve Growth Factor (beta-NGF) (UniProt P01138)
[3] = target: T1, Interleukin-4 (UniProt P05112)
T1 sequence: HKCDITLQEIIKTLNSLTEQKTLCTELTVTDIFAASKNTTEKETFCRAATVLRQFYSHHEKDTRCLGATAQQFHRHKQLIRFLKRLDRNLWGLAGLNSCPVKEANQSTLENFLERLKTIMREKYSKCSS

[4] = target: platelet-derived growth factor (PDGF) (Homo sapiens) (UniProt P01127)
[5] = target: T2, P-Selectin (Homo sapiens) (UniProt P16109)
T2 sequence: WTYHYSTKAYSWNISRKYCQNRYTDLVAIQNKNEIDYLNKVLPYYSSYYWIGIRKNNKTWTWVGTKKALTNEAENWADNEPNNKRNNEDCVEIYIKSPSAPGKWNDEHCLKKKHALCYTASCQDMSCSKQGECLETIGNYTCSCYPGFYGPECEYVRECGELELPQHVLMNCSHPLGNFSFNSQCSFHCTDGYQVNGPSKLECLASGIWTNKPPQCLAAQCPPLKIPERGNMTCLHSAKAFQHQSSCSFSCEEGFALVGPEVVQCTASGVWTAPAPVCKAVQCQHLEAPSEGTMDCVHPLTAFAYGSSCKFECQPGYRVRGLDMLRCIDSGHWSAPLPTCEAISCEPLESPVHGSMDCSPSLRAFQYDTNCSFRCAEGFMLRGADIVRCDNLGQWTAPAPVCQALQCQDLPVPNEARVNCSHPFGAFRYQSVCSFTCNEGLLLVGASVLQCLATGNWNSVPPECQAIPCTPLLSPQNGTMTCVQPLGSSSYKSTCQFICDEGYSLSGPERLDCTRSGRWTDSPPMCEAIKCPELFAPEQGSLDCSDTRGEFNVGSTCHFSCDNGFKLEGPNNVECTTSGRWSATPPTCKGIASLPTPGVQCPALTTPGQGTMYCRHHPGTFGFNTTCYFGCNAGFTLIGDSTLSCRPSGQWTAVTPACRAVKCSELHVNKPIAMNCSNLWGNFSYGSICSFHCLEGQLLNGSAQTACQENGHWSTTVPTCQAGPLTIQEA

[6] = target: Transforming Growth Factor beta1 (TGF-beta1) (UniProt P01137)
Chain of Transforming Growth Factor beta1 (TGF-beta1) (P01137 279-390): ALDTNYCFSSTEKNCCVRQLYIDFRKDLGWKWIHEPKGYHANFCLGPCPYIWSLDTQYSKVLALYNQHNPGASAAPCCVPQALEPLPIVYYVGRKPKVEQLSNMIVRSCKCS

Chain of Angiogenin (P03950 25-147): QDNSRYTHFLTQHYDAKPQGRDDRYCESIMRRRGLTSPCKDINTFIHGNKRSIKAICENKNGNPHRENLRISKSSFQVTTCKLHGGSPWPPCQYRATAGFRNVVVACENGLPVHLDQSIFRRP
Chain of platelet-derived growth factor (PDGF) (Homo sapiens) (P01127 82-190): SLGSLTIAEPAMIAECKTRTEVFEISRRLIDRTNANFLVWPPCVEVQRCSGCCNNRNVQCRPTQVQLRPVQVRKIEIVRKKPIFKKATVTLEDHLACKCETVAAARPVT
Chain of beta-Nerve Growth Factor (beta-NGF) (P01138 122-241): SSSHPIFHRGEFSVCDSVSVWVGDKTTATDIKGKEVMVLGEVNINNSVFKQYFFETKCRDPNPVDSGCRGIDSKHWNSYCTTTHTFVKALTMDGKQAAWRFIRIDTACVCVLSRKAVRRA

Which Kd ([1]; plateau 31%, rate 3.5) does the source give for “ATATATATGGGAGGACGATGCGGGCCCTACTTGCATGAATATCCACTCCTAGGCTTGAGGGAGCAGACGACGAGCGGGAAAAAAAA [Angiogenin pool 011 clone 85]” here?
Its Kd is 0.2 nM.

With “ATATATATGGGAGGACGATGCGGGCCAACCACGTGGTATTATTGACCTTGCAATGGGAATGCCCAGACGACGAGCGGGAAAAAAAA [Angiogenin pool 011 clone 11]” as the sequence, how does the Kd ([1]; plateau 23%, rate 1.46) read?
The Kd was 1.1 nM.

Which Kd ([2]; plateau 55%, rate 0.42) does the source give for “ATATATATGGGAGGACGATGCGGGACCAATAACACTACACTGATCATCTCCCTTCTATGTCCCCAGACGACGAGCGGGAAAAAAAA [beta-NGF pool 031 clone 7]” here?
Its Kd is 2.5 nM.

With “ATATATATGGGAGGACGATGCGGGCCAAGGACATTCTTGTTCGTTGTTGCTGTCCACTGTCTCCAGACGACGAGCGGGAAAAAAAA [IL-4 pool 012 clone 78]” as the sequence, how does the Kd ([3]; plateau 10%, rate 1.7) read?
Its Kd is 9.7 nM.

“ATATATATGGGAGGACGATGCGGGCGGCAGACGCGCCGGGTACCCCAGGTCCCCAGACGACGAGCGGGAAAAAAAA [PDGF pool 008 clone 27]” was tested. Which Kd ([4]; plateau 100%, rate 0.34) did it give?
Its Kd is 3.2 nM.

Which Kd ([4]; plateau 100%, rate 0.24) does the source give for “ATATATATGGGAGGACGATGCGGGGGGCAAGAAGCACGGTACCCCAGGTCCGCCAGACGACGAGCGGGAAAAAAAA [PDGF pool 008 clone 33]” here?
Its Kd is 5.7 nM.

Which Kd ([3]; plateau 58%, rate 0.54, Table 7 sequence differs slightly from listing) does the source give for “ATATATATGGGAGGACGATGCGGGCCAAGGTTCCCTTCTGCCTCATTGTTGTGGGAACCCATCCAGACGACGAGCGGGAAAAAAAA [IL-4 pool 012 clone 41]” here?
The Kd was 61 nM.

How did the Kd ([3]; plateau 49%, rate 0.98) turn out when “ATATATATGGGAGGACGATGCGGGCCTACCAACTCCCCTCTAGTCCTGTTCTATCCACGTTGGCAGACGACGAGCGGGAAAAAAAA [IL-4 pool 012 clone 31]” was run?
The Kd was 21 nM.

“ATATATATGGGAGGACGATGCGGGCGAAGGCACACCGAGTTCATAGTATCCCACAGACGACGAGCGGGAAAAAAAA [PDGF pool 4 clone 64]” was tested. Which Kd ([4]; plateau 53%, rate 0.2) did it give?
The Kd was 4 nM.

“ATATATATGGGAGGACGATGCGGCACCAAAAGGTGGTCTTAGCCTAATTATGGACGTGTCCACCAGACGACGAGCGGGAAAAAAAA [Angiogenin pool 011 clone 27]” was tested. Which Kd ([1]; plateau 37%, rate 0.62) did it give?
The Kd was 0.3 nM.

For “ATATATATGGGAGGACGATGCGGCACGAGGGAATCACCTCGAACTTGTCCTGGATTACTGCCCAGACGACGAGCGGGAAAAAAAA [P-selectin pool 014 clone 21]”, which Kd ([5]; plateau 31%, rate 0.76) is on record?
The Kd was 9.1 nM.

With “ATATATATGGGAGGACGATGCGGGCAAAGTCTTGGTCCACCAAATATGTGATGTCACCACCAGCAGACGACGAGCGGGAAAAAAAA [Angiogenin pool 011 clone 59]” as the sequence, how does the Kd ([1]; plateau 26%, rate 0.52) read?
Its Kd is 0.22 nM.

With “ATATATATGGGAGGACGATGCGGCCATGAACCCATCCTCTGGTTCATAATCGACGTGTTCGTGCAGACGACGAGCGGGAAAAAAAA [P-selectin pool 014 clone 17]” as the sequence, how does the Kd ([5]; plateau 59%, rate 1.36) read?
The Kd was 18 nM.

With “ATATATATGGGAGGACGATGCGGCAAGGGAAACAGATAGCCCAGGCTCCCCCCCAGACGACGAGCGGGAAAAAAAA [PDGF pool 008 clone 37]” as the sequence, how does the Kd ([4]; plateau 74%, rate 0.21) read?
The Kd was 2.4 nM.

Which Kd ([6]; plateau 100%, rate 0.54) does the source give for “ATATATATGGGAGGACGATGCGGGCAGCAACCTACCTTACCTTCCCCTAGCCTACCTTATCCCCAGACGACGAGCGGGAAAAAAAA [TGF-beta1 pool 015 clone 82]” here?
The Kd was 7.1 nM.

How did the Kd ([1]; plateau 28%, rate 2.6) turn out when “ATATATATGGGAGGACGATGCGGGCCAAATGGACTTTTCGCCACGAACTTACGACGGTGTTGCCAGACGACGAGCGGGAAAAAAAA [Angiogenin pool 011 clone 16]” was run?
The Kd was 0.3 nM.

How did the Kd ([4]; plateau 52%, rate 0.25) turn out when “ATATATATGGGAGGACGATGCGGGCGGAAGAGGCAGGGTACCACGGCAGAGGTCAGACGACGAGCGGGAAAAAAAA [PDGF pool 4 clone 24]” was run?
The Kd was 2 nM.

With “ATATATATGGGAGGACGATGCGGGGCAAACTGCGTCGTATTATAAGCCTCGCTACAGATGCCACAGACGACGAGCGGGAAAAAAAA [Angiogenin pool 011 clone 12]” as the sequence, how does the Kd ([1]; plateau 31%, rate 0.68) read?
The Kd was 0.1 nM.

“ATATATATGGGAGGACGATGCGGCAGCACCGAGGTACCCAACAGGGATCCGCCCAGACGACGAGCGGGAAAAAAAA [PDGF pool 008 clone 26]” was tested. Which Kd ([4]; plateau 67%, rate 0.43) did it give?
Its Kd is 1.8 nM.

Which Kd ([3]; plateau 40%, rate 1.8) does the source give for “ATATATATGGGAGGACGATGCGGGCCGAAGTCTAAACCTGCTCGTGACTTTCTTTCGATGTTGCAGACGACGAGCGGGAAAAAAAA [IL-4 pool 012 clone 8]” here?
Its Kd is 39 nM.

How did the Kd ([3]; plateau 52%, rate 0.17) turn out when “ATATATATGGGAGGACGATGCGGCCCCGAGTTTCCCTAAGGTTTGGTTGACCTGTCATTTCAGCAGACGACGAGCGGGAAAAAAAA [IL-4 pool 012 clone 48]” was run?
The Kd was 4.3 nM.

For “ATATATATGGGAGGACGATGCGGGCTCAATAACCTGAATCTACCTTTCCCTAGCAAAGGTCTGCAGACGACGAGCGGGAAAAAAAA [P-selectin pool 014 clone 24]”, which Kd ([5]; plateau 30%, rate 1.86) is on record?
The Kd was 2.1 nM.

For “ATATATATGGGAGGACGATGCGGGACCATCCAATACCTTCCGTAACACTTTCCTTCTTCCTTCCAGACGACGAGCGGGAAAAAAAA [TGF-beta1 pool 015 clone 81]”, which Kd ([6]; plateau 80%, rate 0.58) is on record?
Its Kd is 7.2 nM.

For “ATATATATGGGAGGACGATGCGGGCACAACCTTACCACCCTAGCCTACCCCTAACCTCCTGTCCAGACGACGAGCGGGAAAAAAAA [TGF-beta1 pool 015 clone 74]”, which Kd ([6]; plateau 79%, rate 0.34) is on record?
Its Kd is 4.9 nM.

“ATATATATGGGAGGACGATGCGGCCATACGCACTTCAGTGGGGATAATCCAACTGGTTTGGTGCAGACGACGAGCGGGAAAAAAAA [P-selectin pool 014 clone 95]” was tested. Which Kd ([5]; plateau 39%, rate 1.54, same sequence as SEQ 39) did it give?
Its Kd is 45 nM.

For “ATATATATGGGAGGACGATGCGGCCATACGCACTTCAGTGGGGATAATCCAACTGGTTTGGTGCAGACGACGAGCGGGAAAAAAAA [beta-NGF pool 031 clone 43]”, which Kd ([2]; plateau 38%) is on record?
Its Kd is 7.9 nM.

“ATATATATGGGAGGACGATGCGGGCCACGTGTATTATCCTCAGCTTATAGCCATGGCATGGACCAGACGACGAGCGGGAAAAAAAA [Angiogenin pool 011 clone 58]” was tested. Which Kd ([1]; plateau 16%, rate 1.58) did it give?
Its Kd is 2.2 nM.

“ATATATATGGGAGGACGATGCGGGCACTAACTTTACCTCCACCTCTAACCACCCTCCTTTCTGCAGACGACGAGCGGGAAAAAAAA [beta-NGF pool 031 clone 65]” was tested. Which Kd ([2]; plateau 47%, rate 0.94) did it give?
The Kd was 0.2 nM.

Which Kd ([4]; plateau 71%, rate 0.07) does the source give for “ATATATATGGGAGGACGATGCGGCCGGACATCCCCCAGGGCAAAACCAACTCCCAGACGACGAGCGGGAAAAAAAA [PDGF pool 008 clone 35]” here?
The Kd was 5.1 nM.

With “ATATATATGGGAGGACGATGCGGGCACCTACCTGAGCTACATATGACAGTGTCACCCTGGCCCCAGACGACGAGCGGGAAAAAAAA [Angiogenin pool 011 clone 14]” as the sequence, how does the Kd ([1]; plateau 34%, rate 1.3) read?
Its Kd is 0.2 nM.

For “ATATATATGGGAGGACGATGCGGCGCCCCGATTGACCTTCGATTTATCCTACTTATGGCACCCCAGACGACGAGCGGGAAAAAAAA [P-selectin pool 014 clone 14]”, which Kd ([5]; plateau 15%, rate 4) is on record?
Its Kd is 0.35 nM.

Which Kd ([2]; plateau 58%, rate 0.59) does the source give for “ATATATATGGGAGGACGATGCGGGACCAAATACCAACTTCACATCACCTTTCTTATTCTCCGGCAGACGACGAGCGGGAAAAAAAA [beta-NGF pool 031 clone 44]” here?
The Kd was 2.2 nM.

Which Kd ([2]; plateau 94%, rate 0.38) does the source give for “ATATATATGGGAGGACGATGCGGGCCCCAAACACTTGTTCCTATCTTTCAACCCCCCTTGATCCAGACGACGAGCGGGAAAAAAAA [beta-NGF pool 031 clone 78]” here?
The Kd was 31 nM.

“ATATATATGGGAGGACGATGCGGGCACACTTAAATCCACTTCACCTTACAATTCCTTTATCTGCAGACGACGAGCGGGAAAAAAAA [beta-NGF pool 031 clone 17]” was tested. Which Kd ([2]; plateau 66%, rate 1.2, Table 7 sequence differs slightly from listing) did it give?
The Kd was 0.21 nM.

With “ATATATATGGGAGGACGATGCGGGCCAACCCCTAGTGAACAACAACACTCCCACAGACGACGAGCGGGAAAAAAAA [PDGF pool 4 clone 87]” as the sequence, how does the Kd ([4]; plateau 36%, rate 0.29) read?
The Kd was 2 nM.

For “ATATATATGGGAGGACGATGCGGCACAAGGAACAAAGCGGCCCCTATCCCCAACAGACGACGAGCGGGAAAAAAAA [PDGF pool 008 clone 31]”, which Kd ([4]; plateau 100%, rate 0.19) is on record?
Its Kd is 5.3 nM.
